B1: Mitogen-activated protein kinase kinase 1 (Arabidopsis thaliana (Mouse-ear cress)), Q94A06 (parent)
chain: MNRGSLCPNPICLPPLEQSISKFLTQSGTFKDGDLRVNKDGIQTVSLSEPGAPPPIEPLDNQLSLADLEVIKVIGKGSSGNVQLVKHKLTQQFFALKVIQLNTEESTCRAISQELRINLSSQCPYLVSCYQSFYHNGLVSIILEFMDGGSLADLLKKVGKVPENMLSAICKRVLRGLCYIHHERRIIHRDLKPSNLLINHRGEVKITDFGVSKILTSTSSLANSFVGTYPYMSPERISGSLYSNKSDIWSLGLVLLECATGKFPYTPPEHKKGWSSVYELVDAIVENPPPCAPSNLFSPEFCSFISQCVQKDPRDRKSAKELLEHKFVKMFEDSDTNLSAYFTDAGSLIPPLAN
partner: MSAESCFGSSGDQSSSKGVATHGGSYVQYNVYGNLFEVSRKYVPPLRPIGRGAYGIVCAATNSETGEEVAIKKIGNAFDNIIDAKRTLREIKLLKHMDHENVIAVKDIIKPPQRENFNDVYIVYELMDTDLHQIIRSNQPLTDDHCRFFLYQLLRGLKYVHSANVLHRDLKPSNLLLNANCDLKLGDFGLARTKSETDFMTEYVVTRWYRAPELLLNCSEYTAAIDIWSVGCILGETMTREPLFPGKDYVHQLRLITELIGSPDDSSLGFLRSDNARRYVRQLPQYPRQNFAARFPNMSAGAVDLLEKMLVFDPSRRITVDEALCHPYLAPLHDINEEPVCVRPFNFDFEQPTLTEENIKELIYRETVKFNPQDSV
B2: Mitogen-activated protein kinase kinase 2 (Arabidopsis thaliana (Mouse-ear cress)), Q9S7U9 (parent)
chain: MKKGGFSNNLKLAIPVAGEQSITKFLTQSGTFKDGDLRVNKDGVRIISQLEPEVLSPIKPADDQLSLSDLDMVKVIGKGSSGVVQLVQHKWTGQFFALKVIQLNIDEAIRKAIAQELKINQSSQCPNLVTSYQSFYDNGAISLILEYMDGGSLADFLKSVKAIPDSYLSAIFRQVLQGLIYLHHDRHIIHRDLKPSNLLINHRGEVKITDFGVSTVMTNTAGLANTFVGTYNYMSPERIVGNKYGNKSDIWSLGLVVLECATGKFPYAPPNQEETWTSVFELMEAIVDQPPPALPSGNFSPELSSFISTCLQKDPNSRSSAKELMEHPFLNKYDYSGINLASYFTDAGSPLATLGNLSGTFSV
partner: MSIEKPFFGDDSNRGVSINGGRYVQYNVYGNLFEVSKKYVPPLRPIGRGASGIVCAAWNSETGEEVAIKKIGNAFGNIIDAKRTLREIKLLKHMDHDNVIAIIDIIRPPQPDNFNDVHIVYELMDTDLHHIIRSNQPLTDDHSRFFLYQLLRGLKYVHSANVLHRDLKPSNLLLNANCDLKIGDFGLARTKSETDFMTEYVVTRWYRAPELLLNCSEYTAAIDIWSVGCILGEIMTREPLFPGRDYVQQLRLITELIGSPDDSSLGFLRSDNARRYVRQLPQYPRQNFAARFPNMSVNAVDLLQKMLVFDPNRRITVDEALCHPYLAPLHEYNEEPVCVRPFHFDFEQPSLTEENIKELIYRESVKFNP
B3: Mitogen-activated protein kinase kinase 9 (Arabidopsis thaliana (Mouse-ear cress)), Q9FX43 (parent)
chain: MALVRERRQLNLRLPLPPISDRRFSTSSSSATTTTVAGCNGISACDLEKLNVLGCGNGGIVYKVRHKTTSEIYALKTVNGDMDPIFTRQLMREMEILRRTDSPYVVKCHGIFEKPVVGEVSILMEYMDGGTLESLRGGVTEQKLAGFAKQILKGLSYLHALKIVHRDIKPANLLLNSKNEVKIADFGVSKILVRSLDSCNSYVGTCAYMSPERFDSESSGGSSDIYAGDIWSFGLMMLELLVGHFPLLPPGQRPDWATLMCAVCFGEPPRAPEGCSEEFRSFVECCLRKDSSKRWTAPQLLAHPFLREDL
partner: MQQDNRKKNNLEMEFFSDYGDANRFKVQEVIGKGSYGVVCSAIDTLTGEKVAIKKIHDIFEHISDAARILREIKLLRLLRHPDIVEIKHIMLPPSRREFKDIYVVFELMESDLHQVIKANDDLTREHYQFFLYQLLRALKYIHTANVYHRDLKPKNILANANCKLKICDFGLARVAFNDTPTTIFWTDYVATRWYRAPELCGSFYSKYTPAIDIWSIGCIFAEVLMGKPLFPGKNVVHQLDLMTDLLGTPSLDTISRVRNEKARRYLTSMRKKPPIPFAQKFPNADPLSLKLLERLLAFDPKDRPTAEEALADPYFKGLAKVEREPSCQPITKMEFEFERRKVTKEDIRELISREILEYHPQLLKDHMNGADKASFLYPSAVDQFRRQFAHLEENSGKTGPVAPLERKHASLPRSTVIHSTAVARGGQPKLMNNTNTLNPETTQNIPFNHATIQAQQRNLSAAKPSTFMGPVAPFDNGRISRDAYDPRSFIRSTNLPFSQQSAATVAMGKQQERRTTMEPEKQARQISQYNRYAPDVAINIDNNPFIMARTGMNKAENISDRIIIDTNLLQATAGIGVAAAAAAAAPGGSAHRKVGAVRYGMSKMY
B4: Mitogen-activated protein kinase kinase 2 (Arabidopsis thaliana (Mouse-ear cress)), Q9S7U9 (parent)
chain: B2 chain
partner: B1 partner
B5: Mitogen-activated protein kinase kinase 1 (Arabidopsis thaliana (Mouse-ear cress)), Q94A06 (parent)
chain: B1 chain
partner: B2 partner
B6: Mitogen-activated protein kinase kinase 2 (Arabidopsis thaliana (Mouse-ear cress)), Q9S7U9 (parent)
chain: B2 chain
B7: Mitogen-activated protein kinase kinase 9 (Arabidopsis thaliana (Mouse-ear cress)), Q9FX43 (parent)
chain: B3 chain

Variants of: B1
Settings: with mpk4_arath MPK4, Q39024

| Variant | effect of a mutation on the interaction |
| --- | --- |
| S224D | increasing interaction |
| T218E | increasing interaction |

Variants of: B2
Settings: with mpk11_arath MPK11, Q9LMM5

| Variant | effect of a mutation on the interaction |
| --- | --- |
| T220D | increasing interaction |
| T226E | increasing interaction |

Variants of: B3
Settings: with mpk20_arath MPK20, Q9SJG9

| Variant | effect of a mutation on the interaction |
| --- | --- |
| S201E | increasing interaction |
| S195E | increasing interaction |

Variants of: B4
Settings: with mpk4_arath MPK4, Q39024

| Variant | effect of a mutation on the interaction |
| --- | --- |
| T220D | increasing interaction |
| T226E | increasing interaction |

Variants of: B5
Settings: with mpk11_arath MPK11, Q9LMM5

| Variant | effect of a mutation on the interaction |
| --- | --- |
| S224D | increasing interaction |
| T218E | increasing interaction |

Variants of: B6
Settings: with mpk6_arath MPK6, Q39026
Sequence of mpk6_arath MPK6, Q39026 (Q39026 whole entry): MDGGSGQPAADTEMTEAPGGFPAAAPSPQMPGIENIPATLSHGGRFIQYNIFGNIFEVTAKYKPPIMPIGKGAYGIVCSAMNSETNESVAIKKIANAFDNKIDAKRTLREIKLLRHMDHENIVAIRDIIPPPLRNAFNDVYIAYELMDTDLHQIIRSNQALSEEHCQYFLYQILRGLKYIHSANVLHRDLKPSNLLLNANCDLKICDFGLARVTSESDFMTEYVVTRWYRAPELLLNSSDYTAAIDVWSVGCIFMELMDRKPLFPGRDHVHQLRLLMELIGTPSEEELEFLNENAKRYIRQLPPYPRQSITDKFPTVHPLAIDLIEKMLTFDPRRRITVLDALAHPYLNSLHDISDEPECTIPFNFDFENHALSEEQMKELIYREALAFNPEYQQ

| Variant | effect of a mutation on the interaction |
| --- | --- |
| T226E | increasing interaction |
| T220D | increasing interaction |

Variants of: B6
Settings: with mpk10_arath MPK10, Q9M1Z5
Sequence of mpk10_arath MPK10, Q9M1Z5 (Q9M1Z5 whole entry): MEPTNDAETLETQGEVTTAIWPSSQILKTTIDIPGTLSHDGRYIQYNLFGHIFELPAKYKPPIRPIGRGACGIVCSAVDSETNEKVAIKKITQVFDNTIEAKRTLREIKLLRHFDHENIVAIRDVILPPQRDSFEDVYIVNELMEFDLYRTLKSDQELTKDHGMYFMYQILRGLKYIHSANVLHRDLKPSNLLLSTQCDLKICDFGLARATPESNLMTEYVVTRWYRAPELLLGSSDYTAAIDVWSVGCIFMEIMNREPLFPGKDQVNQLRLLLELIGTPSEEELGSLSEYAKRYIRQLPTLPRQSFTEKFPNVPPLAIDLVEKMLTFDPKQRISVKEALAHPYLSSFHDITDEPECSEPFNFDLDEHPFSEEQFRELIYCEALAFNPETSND

| Variant | effect of a mutation on the interaction |
| --- | --- |
| T226E | increasing interaction |
| T220D | increasing interaction |

Variants of: B6
Settings: with mpk13_arath MPK13, Q9LQQ9
Sequence of mpk13_arath MPK13, Q9LQQ9 (Q9LQQ9 whole entry): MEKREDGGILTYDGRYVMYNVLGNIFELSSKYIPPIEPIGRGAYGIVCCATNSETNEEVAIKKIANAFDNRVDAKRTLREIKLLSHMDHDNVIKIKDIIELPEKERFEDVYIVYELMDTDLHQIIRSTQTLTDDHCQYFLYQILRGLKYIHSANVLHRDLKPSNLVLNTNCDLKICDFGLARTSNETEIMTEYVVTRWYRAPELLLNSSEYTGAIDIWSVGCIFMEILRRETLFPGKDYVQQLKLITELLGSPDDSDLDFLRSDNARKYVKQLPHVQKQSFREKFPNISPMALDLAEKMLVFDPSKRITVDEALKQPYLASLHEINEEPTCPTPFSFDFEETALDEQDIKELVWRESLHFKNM

| Variant | effect of a mutation on the interaction |
| --- | --- |
| T226E | increasing interaction |
| T220D | increasing interaction |

Variants of: B7
Settings: with mpk6_arath MPK6, Q39026

| Variant | effect of a mutation on the interaction |
| --- | --- |
| S195E | increasing interaction |
| S201E | increasing interaction |

Variants of: B7
Settings: with mpk10_arath MPK10, Q9M1Z5

| Variant | effect of a mutation on the interaction |
| --- | --- |
| S195E | increasing interaction |
| S201E | increasing interaction |
